Measurements published in patent US20210379110A1 (LENTIGEN TECHNOLOGY, published 2021).

T1: CD22-Fc peptide (R&D systems) (UniProt P20273 20-687)
T1 construct: Bought reagent (R&D systems); not shown: Fc part of the bought reagent
T1 sequence (looked up): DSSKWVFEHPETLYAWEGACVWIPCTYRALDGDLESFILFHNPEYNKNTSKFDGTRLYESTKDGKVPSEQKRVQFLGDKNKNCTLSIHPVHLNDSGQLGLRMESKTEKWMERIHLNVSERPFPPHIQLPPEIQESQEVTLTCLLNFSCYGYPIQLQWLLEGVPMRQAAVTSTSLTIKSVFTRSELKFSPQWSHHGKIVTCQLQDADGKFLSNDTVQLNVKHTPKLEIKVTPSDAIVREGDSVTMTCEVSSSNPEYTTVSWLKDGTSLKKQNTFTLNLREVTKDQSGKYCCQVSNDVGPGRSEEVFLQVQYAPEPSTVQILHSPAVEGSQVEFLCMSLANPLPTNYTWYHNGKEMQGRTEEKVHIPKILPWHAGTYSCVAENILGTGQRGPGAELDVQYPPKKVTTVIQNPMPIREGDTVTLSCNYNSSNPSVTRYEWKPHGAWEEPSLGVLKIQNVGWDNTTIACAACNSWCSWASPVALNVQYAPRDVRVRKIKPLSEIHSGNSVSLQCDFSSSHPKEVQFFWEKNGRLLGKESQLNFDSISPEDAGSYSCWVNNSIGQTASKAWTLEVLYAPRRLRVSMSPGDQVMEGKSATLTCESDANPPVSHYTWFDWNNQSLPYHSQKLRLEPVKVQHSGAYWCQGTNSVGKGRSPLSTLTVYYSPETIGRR

T2: TSLPR-Fc peptide (R&D systems) (UniProt Q9HC73 25-231)
T2 construct: Bought reagent (R&D systems); also called TSLPR-Fc reagent; not shown: Fc part of the bought reagent
T2 sequence (looked up): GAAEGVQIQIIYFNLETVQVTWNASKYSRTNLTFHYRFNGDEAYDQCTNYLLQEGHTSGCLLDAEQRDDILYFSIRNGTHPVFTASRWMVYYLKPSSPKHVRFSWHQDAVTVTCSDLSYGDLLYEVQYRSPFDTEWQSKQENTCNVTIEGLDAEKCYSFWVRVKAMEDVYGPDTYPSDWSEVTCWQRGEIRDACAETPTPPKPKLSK

B1: D0104 (EF-1a-CD22 (16P17)-TSLPR CD8 BBz) (other)
chain: QVQLQQSGPGLVKHSQTLSLTCAISGDSVSSNSAAWNWIRQSPSRGLEWLGRTYYRSKWYNDYAVSVKSRITINPDTSKNQFSLQLNSVTPEDTAVYYCAQEVEPHDAFDIWGQGTMVTVSSGGGGSGGGGSGGGGSDIQMTQSPSSVYASVGDKVTITCRASQDVSGWLAWYQQKPGLAPQLLISGASTLQGEVPSRFSGSGSGTDFTLTISSLQPEDFATYYCQQAKYFPYTFGQGTKLEIKGGGGSGGGGSGGGGSGGGGSGGGGSQVTLKESGPGILKPSQTLSLTCSFSGFSLSTSGMGVGWIRQPSGKGLEWLAHIWWDDDKYYNPSLKSQLTISKDTSRNQVFLKITSVDTADTATYYCSRRPRGTMDAMDYWGQGTSVTVSSGGGGSGGGGSGGGGSDIVMTQAASSLSASLGDRVTISCRASQDISKYLNWYQQKPDGTVKLLIYYTSRLHSGVPSRFSGSGSGTDYSLTIRNLEQEDIATYFCQQVYTLPWTFGGGTKLEIKAAATTTPAPRPPTPAPTIASQPLSLRPEACRPAAGGAVHTRGLDFACDIYIWAPLAGTCGVLLLSLVITLYCKRGRKKLLYIFKQPFMRPVQTTQEEDGCSCRFPEEEEGGCELRVKFSRSADAPAYQQGQNQLYNELNLGRREEYDVLDKRRGRDPEMGGKPRRKNPQEGLYNELQKDKMAEAYSEIGMKGERRRGKGHDGLYQGLSTATKDTYDALHMQALPPR
notes: Tandem chimeric antigen receptor on human primary T cells: leader, CD22 scFv 16P17 (membrane-distal), (GGGGS)5, TSLPR scFv 3G11, CD8 hinge/TM, 4-1BB, CD3 zeta; also called CAR 22-TSLPR BBz; tandem D0104 CD22×TSLPR CAR
B2: D0103 (EF-1a-TSLPR-CD22 (16P17) CD8 BBz) (other)
chain: QVTLKESGPGILKPSQTLSLTCSFSGFSLSTSGMGVGWIRQPSGKGLEWLAHIWWDDDKYYNPSLKSQLTISKDTSRNQVFLKITSVDTADTATYYCSRRPRGTMDAMDYWGQGTSVTVSSGGGGSGGGGSGGGGSDIVMTQAASSLSASLGDRVTISCRASQDISKYLNWYQQKPDGTVKLLIYYTSRLHSGVPSRFSGSGSGTDYSLTIRNLEQEDIATYFCQQVYTLPWTFGGGTKLEIKGGGGSGGGGSGGGGSGGGGSGGGGSQVQLQQSGPGLVKHSQTLSLTCAISGDSVSSNSAAWNWIRQSPSRGLEWLGRTYYRSKWYNDYAVSVKSRITINPDTSKNQFSLQLNSVTPEDTAVYYCAQEVEPHDAFDIWGQGTMVTVSSGGGGSGGGGSGGGGSDIQMTQSPSSVYASVGDKVTITCRASQDVSGWLAWYQQKPGLAPQLLISGASTLQGEVPSRFSGSGSGTDFTLTISSLQPEDFATYYCQQAKYFPYTFGQGTKLEIKAAATTTPAPRPPTPAPTIASQPLSLRPEACRPAAGGAVHTRGLDFACDIYIWAPLAGTCGVLLLSLVITLYCKRGRKKLLYIFKQPFMRPVQTTQEEDGCSCRFPEEEEGGCELRVKFSRSADAPAYQQGQNQLYNELNLGRREEYDVLDKRRGRDPEMGGKPRRKNPQEGLYNELQKDKMAEAYSEIGMKGERRRGKGHDGLYQGLSTATKDTYDALHMQALPPR
notes: Tandem chimeric antigen receptor on human primary T cells: leader, TSLPR scFv 3G11 (membrane-distal), (GGGGS)5, CD22 scFv 16P17, CD8 hinge/TM, 4-1BB, CD3 zeta; also called CAR TSLPR-22 BBz; tandem D0103 TSLPR×CD22 CAR
B3: D0102 (EF-1a-CD19 (19217_1)-TSLPR CD8 BBz) (other)
chain: EVQLVQSGAEVKKPGASVKVSCKASGYTFTSYYMHWVRQAPGQGLEWMGLINPSGGSTSYAQKFQGRVTMTRDTSTSTVYMELSSLRSEDTAVYYCARSDRGITATDAFDIWGQGTMVTVSSGGGGSGGGGSGGGGSQSVLTQPPSVSVAPGRMAKITCGGSDIGNKNVHWYQQKPGQAPVLVVYDDYDRPSGIPERFSGSNSGDAATLTISTVEVGDEADYFCQVWDGSGDPYWMFGGGTQLTVLGGGGGSGGGGSGGGGSGGGGSGGGGSQVTLKESGPGILKPSQTLSLTCSFSGFSLSTSGMGVGWIRQPSGKGLEWLAHIWWDDDKYYNPSLKSQLTISKDTSRNQVFLKITSVDTADTATYYCSRRPRGTMDAMDYWGQGTSVTVSSGGGGSGGGGSGGGGSDIVMTQAASSLSASLGDRVTISCRASQDISKYLNWYQQKPDGTVKLLIYYTSRLHSGVPSRFSGSGSGTDYSLTIRNLEQEDIATYFCQQVYTLPWTFGGGTKLEIKAAATTTPAPRPPTPAPTIASQPLSLRPEACRPAAGGAVHTRGLDFACDIYIWAPLAGTCGVLLLSLVITLYCKRGRKKLLYIFKQPFMRPVQTTQEEDGCSCRFPEEEEGGCELRVKFSRSADAPAYQQGQNQLYNELNLGRREEYDVLDKRRGRDPEMGGKPRRKNPQEGLYNELQKDKMAEAYSEIGMKGERRRGKGHDGLYQGLSTATKDTYDALHMQALPPR
notes: also called CAR 19-TSLPR BBz; tandem D0102 CD19×TSLPR CAR
B4: D0101 (EF-1a-TSLPR-CD19 (19217_1) CD8 BBz) (other)
chain: QVTLKESGPGILKPSQTLSLTCSFSGFSLSTSGMGVGWIRQPSGKGLEWLAHIWWDDDKYYNPSLKSQLTISKDTSRNQVFLKITSVDTADTATYYCSRRPRGTMDAMDYWGQGTSVTVSSGGGGSGGGGSGGGGSDIVMTQAASSLSASLGDRVTISCRASQDISKYLNWYQQKPDGTVKLLIYYTSRLHSGVPSRFSGSGSGTDYSLTIRNLEQEDIATYFCQQVYTLPWTFGGGTKLEIKGGGGSGGGGSGGGGSGGGGSGGGGSEVQLVQSGAEVKKPGASVKVSCKASGYTFTSYYMHWVRQAPGQGLEWMGLINPSGGSTSYAQKFQGRVTMTRDTSTSTVYMELSSLRSEDTAVYYCARSDRGITATDAFDIWGQGTMVTVSSGGGGSGGGGSGGGGSQSVLTQPPSVSVAPGRMAKITCGGSDIGNKNVHWYQQKPGQAPVLVVYDDYDRPSGIPERFSGSNSGDAATLTISTVEVGDEADYFCQVWDGSGDPYWMFGGGTQLTVLGAAATTTPAPRPPTPAPTIASQPLSLRPEACRPAAGGAVHTRGLDFACDIYIWAPLAGTCGVLLLSLVITLYCKRGRKKLLYIFKQPFMRPVQTTQEEDGCSCRFPEEEEGGCELRVKFSRSADAPAYQQGQNQLYNELNLGRREEYDVLDKRRGRDPEMGGKPRRKNPQEGLYNELQKDKMAEAYSEIGMKGERRRGKGHDGLYQGLSTATKDTYDALHMQALPPR
notes: also called CAR TSLPR-19 BBz; tandem D0101 TSLPR×CD19 CAR

Target: T1, CD22-Fc peptide (R&D systems)
Experiment: flow cytometry, CAR T cells stained with CD22-Fc then anti-Fc AF647
Procedure: (§1) For CAR surface expression, TSLPR Fc, CD19Fc and CD22Fc peptide (R&D systems, Minneapolis, Minn.) were used followed anti Fc-AF647 (Jackson ImmunoResearch, West Grove, Pa.). T cell subtypes was further identified with anti-CD4 antibody conjugated to VioBlue fluorophore (Miltenyi Biotec Bergisch Gladbach, Germany). Dead cells in all studies were excluded by 7AAD staining (BD Biosciences, San Jose, Calif.). Flow data were analyzed with MACSQuantify software.
To develop the tandem CD22 and TSLPR targeting CARs, CD22-directed scFv 16P17 was used in either membrane-proximal or membrane-distal orientation (construct D0103 and D0104, respectively). For TSLPR-targeting, scFv 3G11 was used. Surface expression of the tandem TSLPR×CD22 CAR incorporating the human ScFv 16P17 together with the TSLPR scFv 3G11, when the TSLPR scFv is positioned in the membrane-distal orientation (D0103), or in the membrane-proximal orientation (D0104) is shown in FIG. 5. Specific detection of each scFv domain within the CAR structure was facilitated by CAR T cell staining with TSLPR-Fc peptide, or CD22-Fc peptide, followed by a secondary staining with anti-Fc AF647-labeled reagent, and detected in the APC channel by flow cytometry. In CAR construct D0103, in which CD22 scFv was membrane-proximal and the TSLPR scFv was membrane-distal, the TSLPR scFv was detected at 26% of the transduced cells, and CD22 scFv was detected at 11%. In CAR construct D0104 with the opposite binder orientation (i.e. the CD22 scFv was membrane-distal, and the TSLPR scFv was membrane-proximal), the detection levels were 75% and 39% for scFv TSLPR and CD22, respectively (FIG. 5).
The surface expression of the tandem TSLPR×CD22 CAR incorporating the human ScFv m971 in membrane-proximal orientation (D0111), and in the membrane-distal orientation (D0112) is shown in FIG. 8. Specific detection of each scFv domain within the CAR structure was facilitated by CAR T cell staining with TSLPR-Fc peptide, or CD22-Fc peptide, followed by a secondary staining with anti-Fc AF647-labeled reagent and detection in the APC channel by flow cytometry. In CAR construct D0111, in which CD22 scFv was membrane-proximal and the TSLPR scFv was membrane-distal, the TSLPR scFv was detected at 34% of the transduced cells, and CD22 scFv was detected at 11%.

Binder	percent of transduced T cells stained by antigen-Fc [%]
B1	39
B2	11

Target: T2, TSLPR-Fc peptide (R&D systems)
Experiment: flow cytometry, CAR T cells stained with TSLPR-Fc then anti-Fc AF647
Procedure: as §1, with “Flow cytometric analysis was performed to detect the CAR molecule surface expression. Half million of harvested primary T cells were washed and stained with cold AutoMACS buffer supplemented with 0.5% bovine serum albumin (Miltenyi Biotec, Bergisch Gladbach, Germany), and resuspended in 200 ul Running Buffer before acquired by MACSQuant®10 Analyzer (Miltenyi Biotec Bergisch Gladbach, Germany). For” for “For”
Specific detection of each scFv domain within the CAR structure was facilitated by CAR T cell staining with TSLPR-Fc peptide, or CD19-Fc peptide, followed by a secondary staining with anti-Fc AF647-labeled reagent, and fluorescence was detected in the APC channel. In CAR construct D0101, in which CD19 scFv was membrane-proximal and the TSLPR scFv was membrane-distal, the TSLPR scFv was detected at 44% of the transduced cells, and CD19 scFv was detected at 31%. In CAR construct D0102 with the reverse binder orientation (i.e. the TSLPR scFv membrane-proximal, and CD19 scFv membrane-distal), the detection levels were 85% and 75% for scFv TSLPR and CD19, respectively (FIG. 2).

Binder	percent of transduced T cells stained by antigen-Fc [%]
B1	75
B3	85
B2	26
B4	44
